# Assay results published in US20100129369A1 (Eli Lilly, published 2010).
# T1: PlexinA2-ECD-Fc (human, UniProt O75051 35-1237)
# T1 construct: extracellular domain; Bought reagent
# T1 sequence (looked up): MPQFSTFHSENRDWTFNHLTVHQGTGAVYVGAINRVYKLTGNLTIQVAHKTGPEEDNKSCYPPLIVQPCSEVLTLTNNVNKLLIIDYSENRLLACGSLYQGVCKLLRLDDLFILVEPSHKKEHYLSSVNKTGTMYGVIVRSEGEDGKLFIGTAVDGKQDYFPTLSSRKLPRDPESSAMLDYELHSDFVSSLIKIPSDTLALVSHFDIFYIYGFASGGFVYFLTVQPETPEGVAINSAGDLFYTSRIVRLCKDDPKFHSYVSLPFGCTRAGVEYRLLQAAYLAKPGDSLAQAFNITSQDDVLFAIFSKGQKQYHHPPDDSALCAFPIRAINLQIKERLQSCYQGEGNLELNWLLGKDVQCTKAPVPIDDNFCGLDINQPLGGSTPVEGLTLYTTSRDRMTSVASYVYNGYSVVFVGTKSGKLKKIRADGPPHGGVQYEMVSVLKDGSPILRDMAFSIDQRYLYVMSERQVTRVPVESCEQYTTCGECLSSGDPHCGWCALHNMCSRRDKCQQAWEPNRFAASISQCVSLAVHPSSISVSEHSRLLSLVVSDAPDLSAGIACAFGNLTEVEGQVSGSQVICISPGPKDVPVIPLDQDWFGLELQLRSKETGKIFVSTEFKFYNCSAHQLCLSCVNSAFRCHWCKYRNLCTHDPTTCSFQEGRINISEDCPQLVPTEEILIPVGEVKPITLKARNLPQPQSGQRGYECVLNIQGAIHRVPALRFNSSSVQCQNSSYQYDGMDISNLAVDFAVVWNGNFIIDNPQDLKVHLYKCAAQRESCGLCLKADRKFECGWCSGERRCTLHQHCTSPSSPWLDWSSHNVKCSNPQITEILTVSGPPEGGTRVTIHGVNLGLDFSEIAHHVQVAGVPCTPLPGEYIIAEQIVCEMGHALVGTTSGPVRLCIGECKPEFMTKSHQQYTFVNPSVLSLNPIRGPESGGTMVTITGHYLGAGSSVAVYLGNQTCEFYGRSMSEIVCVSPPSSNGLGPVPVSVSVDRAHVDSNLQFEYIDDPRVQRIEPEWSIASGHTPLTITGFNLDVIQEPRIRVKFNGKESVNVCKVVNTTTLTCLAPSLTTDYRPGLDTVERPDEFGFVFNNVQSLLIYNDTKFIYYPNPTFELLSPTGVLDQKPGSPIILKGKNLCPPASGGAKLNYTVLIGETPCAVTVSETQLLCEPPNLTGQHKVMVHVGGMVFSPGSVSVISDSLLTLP
# B1: C8-6 (antibody, human IgG2, kappa, V domains shown)
# VH: QVQLVQSGAEVKKPGASVKVSCKASGYTFTDYYMHWVRQAPGQGLEWMGRVNPNRGGTTYNQKFEGRVTMTTDTSTSTAYMELRSLRSDDTAVYYCARTNWLDYWGQGTTVTVSS
# VL: DIQMTQSPSSLSASVGDRVTITCSVSSSVSSIYLHWYQQKPGKAPKLLIYSTSNLASGVPSRFSGSGSGTDFTLTISSLQPEDFATYYCIQYSGYPLTFGGGTKVEIKR
# notes: Called IgG4, kappa; also called Mab C8-6
# Biological target: T1, PlexinA2-ECD-Fc
# Experiment: ELISA, coated ECD-Fc, antibody 0.002 ng/mL
binder,measurement,value
B1,Average A450 nm,0.099 A450 nm
